The test system of data set [1] is transgenic mice expressing human Swedish mutant APP. Description: Mouse model of AD (APP transgenic mice): amyloid deposition and Morris water maze. The format is in vivo. Conditions: treated for 3 months, vs vehicle and human IgG1. On the procedure: Experiments were performed to evaluate whether TTP-4000 could affect amyloid formation and cognitive dysfunction in a mouse model of AD. The experiments utilized transgenic mice expressing the human Swedish mutant amyloid precursor protein (APP) under the control of the PDGF-B chain promoter. Over time, these mice generate high levels of the RAGE ligand, amyloid beta (Aβ).
The APP mice (male) used in this experiment were designed by microinjection of the human APP gene (with the Swedish and London mutations) into mouse eggs under the control of the platelet-derived growth factor B (PDGF-B) chain gene promoter. The mice were generated on a C57BL/6 background and were developed by Molecular Therapeutics Inc. Animals were fed ad libitum and maintained by brother sister mating. The mice generated from this construct develop amyloid deposits starting at 6 months of age. Animals were aged for 6 months and then maintained for 90 days and sacrificed for amyloid quantification.
APP transgenic mice were administered vehicle or TTP4000 every other day [qod (i.p.)] for 90 days starting at 6 months of age. At the end of the experiment, animals were sacrificed and examined for Aβ plaque burden in the brain (i.e., plaque number). A 6-month control APP group was used to determine the baseline of amyloid deposits. In addition, at the end of the study, the animals were subjected to behavioral (Morris water maze) analysis. The investigators were blinded to the study compounds. Samples were given to the mice at 0.25 ml/mouse/every other day.
For histological examination, the animals were anesthetized with an intraperitoneal injection (IP) of sodium pentobarbital (50 mg/kg). The animals were transcardially perfused with 4° C., phosphate-buffered saline (PBS) followed by 4% paraformaldehyde. The brains were removed and placed in 4% paraformaldehyde over night. The brains were processed to paraffin and embedded. Ten serial 30-μm thick sections through the brain were obtained. Sections were subjected to primary antibody overnight at 4° C. (Aβ peptide antibody) in order to detect the amyloid deposits in the brain of the transgenic animals (Guo et al., J. Neurosci., 22:5900-5909 (2002)). Sections were washed in Tris-buffered saline (TBS) and secondary antibody was added and incubated for 1 hour at room temperature. After washing, the sections were incubated as instructed in the Vector ABC Elite kit (Vector Laboratories) and stained with […] (DAB). The reactions were stopped in water and cover-slipped after treatment with xylene. The amyloid area in each section was determined with a computer-assisted image analysis system, consisting of a Power Macintosh computer equipped with a Quick Capture frame grabber card, Hitachi CCD camera mounted on an Olympus microscope and camera stand. NIH Image Analysis Software, v. 1.55 was used. The images were captured and the total area of amyloid was determined over the ten sections. A single operator blinded to treatment status performed all measurements. Summing the amyloid volumes of the sections and dividing by the total number of sections was done to calculate the amyloid volume.
For quantitative analysis, an enzyme-linked immunosorbent assay (ELISA) was used to measure the levels of human total Aβ, Aβtotal and Aβ1-42 in the brains of APP transgenic mice (Biosource International, Camarillo, Calif.). Aβtotal and Aβ1-42 were extracted from mouse brains by guanidine hydrochloride and quantified as described by the manufacturer. […]

The target of data set [2] is T1, amyloid-beta (Abeta) (Amyloid Beta (1-40)) (Homo sapiens, UniProt P05067).
T1 construct: Amyloid Beta (1-40) from Biosource; purchased Biosource
Description: In vitro ligand binding (ELISA) to immobilized amyloid-beta. Conditions: ligand 5 micrograms per well; FIG. 7. On the procedure:
(§1) For example, the RAGE fusion protein may be used in a binding assay to identify potential RAGE ligands. In one example embodiment of such a binding assay, a known RAGE ligand may coated onto a solid substrate (e.g., Maxisorb plates) at a concentration of about 5 micrograms per well, where each well contains a total volume of about 100 microliters (μL). The plates may be incubated at 4° C. overnight to allow the ligand to absorb. Alternatively, shorter incubation periods at higher temperature (e.g., room temperature) may be used. […] The RAGE fusion protein bound to the immobilized ligand may be detected in a variety of ways. […] The bound complex may be detected by adding the alkaline phosphatase substrate, para-nitrophenylphosphate (PNPP), and measuring conversion of PNPP to para-nitrophenol (PNP) as an increase in absorbance at 405 nm. […] In the absence of ligand (i.e., coating with only BSA) there was no increase in absorbance. […] Binding was detected by the addition of an immunodetection complex containing a monoclonal mouse anti-human IgG1 diluted 1:11,000 to a final assay concentration (FAC) of 21 ng/100 μL, a biotinylated goat anti-mouse IgG diluted 1:500, to a FAC of […], and an avidin-linked alkaline phosphatase. […]
On the technique in general: In an ELISA, binding on a coated surface is turned into a signal by an enzyme label.

The next data set deals with T2, S100b (S100) (Homo sapiens, UniProt P04271).
T2 sequence (P04271 1-92): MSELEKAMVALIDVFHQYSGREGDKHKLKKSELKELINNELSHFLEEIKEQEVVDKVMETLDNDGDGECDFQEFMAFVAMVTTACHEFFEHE
Description: In vitro ligand binding (ELISA) to immobilized S100b. Conditions: ligand 5 micrograms per well; FIG. 7. On the procedure:
as §1

Another data set has as its target T3, amphoterin (Ampho) (Homo sapiens, UniProt P09429).
T3 sequence (P09429 1-215): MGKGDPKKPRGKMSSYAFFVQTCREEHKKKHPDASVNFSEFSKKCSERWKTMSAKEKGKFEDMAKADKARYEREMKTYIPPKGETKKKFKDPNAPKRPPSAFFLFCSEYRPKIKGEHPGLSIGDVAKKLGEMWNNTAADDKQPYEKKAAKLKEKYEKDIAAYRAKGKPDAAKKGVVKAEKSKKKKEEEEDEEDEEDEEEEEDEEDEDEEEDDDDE
The experiment in a line: In vitro ligand binding (ELISA) to immobilized amphoterin. The note with it: ligand 5 micrograms per well; FIG. 7. On the procedure: as §1

Data set [3] relates to recurrent diabetes in NOD/LtJ mice with syngeneic islet transplants. The experiment in a line: Syngeneic islet transplantation in diabetic NOD mice. The note with it: 300 ug LD + 100 ug qod ip. The format is in vivo, mouse. An excerpt: Spontaneous autoimmune non-obese diabetic mice (NOD/LtJ) (12-25 weeks old) served as recipients for islet cells, while young pre-diabetic NOD/LtJ mice (6-7 weeks old) served as donors in syngeneic islet transplantation. Islets for transplantation were isolated as described above in Section A (Allogeneic Islet Transplantation).
Diabetic NOD/LtJ mice received islet grafts within 2 days of the diagnosis of diabetes. 500-600 freshly isolated islets (approximately 550 islet equivalents) from donor mice were picked up with an infusion set and transplanted into the subcapular space of the right kidney.
Test compounds were administered as soon as the islets were transplanted and continued for approximately 8 weeks.
Islet graft function was monitored by serial blood glucose measurements daily for the first 2 weeks after islet transplantation, followed by every other day thereafter. Reversal of diabetes was defined as blood glucose less than 200 mg/dl on two consecutive measurements. Percentage graft loss was determined when blood glucose exceeded 250 mg/dl on two consecutive measurements.

Where “and” joins values, the source holds several entries; their conditions need not be identical. Identical values can stand only once.

T1 sequence (P05067 672-711): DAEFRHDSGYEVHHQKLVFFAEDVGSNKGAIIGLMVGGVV

B1: mouse sRAGE: mouse soluble RAGE used as comparator in the AD mouse model (protein, UniProt Q62151 23-340, looked up)
extracellular domain: GQNITARIGEPLVLSCKGAPKKPPQQLEWKLNTGRTEAWKVLSPQGGPWDSVARILPNGSLLLPATGIVDEGTFRCRATNRRGKEVKSNYRVRVYQIPGKPEIVDPASELTASVPNKVGTCVSEGSYPAGTLSWHLDGKLLIPDGKETLVKEETRRHPETGLFTLRSELTVIPTQGGTHPTFSCSFSLGLPRRRPLNTAPIQLRVREPGPPEGIQLLVEPEGGIVAPGGTVTLTCAISAQPPPQVHWIKDGAPLPLAPSPVLLLPEVGHEDEGTYSCVATHPSHGPQESPPVSIRVTETGDEGPAEGSVGESGLGTLA
modifications: extracellular domain
notes: mouse soluble RAGE used as comparator in the AD mouse model
Consider B1, for which, in data set [1] (FIG. 14A), the “Aβ plaques in the brain” value is given as “fewer Aβ plaques”. The “cognitive dysfunction (Morris water maze)” value in data set [1] (FIG. 14B) was “less cognitive dysfunction”.

B2: TTP-3000: three domain RAGE fusion protein: human RAGE V domain and interdomain linker (to residue 136) fused to CH2 and CH3 domains of human IgG1 (protein)
chain: QNITARIGEPLVLKCKGAPKKPPQRLEWKLNTGRTEAWKVLSPQGGGPWDSVARVLPNGSLFLPAVGIQDEGIFRCQAMNRNGKETKSNYRVRVYQIPGKPEIVDSASELTAGPSVFLFPPKPKDTLMISRTPEVTCVVVDVSHEDPEVKFNWYVDGVEVHNAKTKPREEQYNSTYRVVSVLTVLHQDWLNGKEYKCKVSNKALPAPIEKTISKAKGQPREPQVYTLPPSRDELTKNQVSLTCLVKGFYPSDIAVEWESNGQPENNYKTTPPVLDSDGSFFLYSKLTVDKSRWQQGNVFSCSVMHEALHNHYTQKSLSLSPGK
With B2, the “binding to immobilized amyloid-beta (absorbance at 405 nm)” value in data set [2] is “specifically interact”. Besides, in the data set with S100b (S100), the “binding to immobilized S100b (absorbance at 405 nm)” value is given as “specifically interact”. Further, the “binding to immobilized amphoterin (absorbance at 405 nm)” value with amphoterin (Ampho) was “specifically interact”. Further, the “day of graft loss, Mean” value in data set [3] amounted to 38.43 days. Besides, in data set [3] (blood glucose exceeded 250 mg/dl), the “day of graft loss, each animal” value was 46 days and 42 days and 41 days and 34 days and 32 days and 30 days and 44 days.

The values are drawn from patent publication US20090004190A1, “Rage Fusion Proteins And Methods Of Use” (priority 2006, published 2009).
